In patent US20260201067A1, “DPP3 INHIBITOR FOR IMPROVEMENT OF PULMONARY FUNCTION IN CRITICALLY ILL PATIENTS” (4TEEN4 Pharmaceuticals GmbH, priority 2022, published 2026):
Entries after “also recorded” stand apart in the source; their conditions may differ. Each block holds one molecule with its values, some of them ahead of it.

Columns and labels:
DPP3 = target: T1, DPP3 (Homo sapiens, UniProt Q9NY33); settings: literature; cited from earlier work
T1 sequence (Q9NY33 1-737): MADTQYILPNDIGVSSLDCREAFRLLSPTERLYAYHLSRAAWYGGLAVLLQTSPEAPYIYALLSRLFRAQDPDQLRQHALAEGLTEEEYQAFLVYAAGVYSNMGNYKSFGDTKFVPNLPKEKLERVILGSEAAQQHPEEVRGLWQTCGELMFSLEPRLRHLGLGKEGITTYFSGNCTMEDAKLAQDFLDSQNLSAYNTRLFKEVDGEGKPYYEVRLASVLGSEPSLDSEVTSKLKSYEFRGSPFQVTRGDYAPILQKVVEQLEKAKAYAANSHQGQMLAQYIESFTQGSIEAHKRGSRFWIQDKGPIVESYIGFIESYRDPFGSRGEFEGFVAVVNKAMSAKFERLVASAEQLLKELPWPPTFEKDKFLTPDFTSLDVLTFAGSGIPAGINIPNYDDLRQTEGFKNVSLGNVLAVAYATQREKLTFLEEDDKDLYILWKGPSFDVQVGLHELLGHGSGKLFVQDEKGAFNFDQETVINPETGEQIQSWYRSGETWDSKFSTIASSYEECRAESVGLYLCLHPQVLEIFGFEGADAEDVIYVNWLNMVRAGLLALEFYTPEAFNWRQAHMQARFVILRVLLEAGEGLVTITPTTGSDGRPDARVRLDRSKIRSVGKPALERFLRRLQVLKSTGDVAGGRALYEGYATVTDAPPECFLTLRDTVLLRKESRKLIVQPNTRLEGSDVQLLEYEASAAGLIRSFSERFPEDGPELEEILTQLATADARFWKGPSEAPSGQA

[1] = system: healthy mice injected with DPP3; experiment: Effect of Valsartan in healthy mice injected with DPP3; type: in vivo, Black 6 mice
Description: In this experiment, healthy Black 6 mice (8-12 weeks, group size refer to table 8) consumed water with 50 mg/kg Valsartan per day or just water (Table 8) for a period of two weeks. Subsequently, both groups received an intravenous injection of native DPP3 (600 μg/kg) and the shortening fraction was assessed according to Gao et al., 2011 at 15, 60 and 120 minutes (FIG. 12).

[2] = target: T2, native human DPP3 from blood cells (human, UniProt Q9NY33 2-737); experiment: cell-based or functional assay
T2 sequence: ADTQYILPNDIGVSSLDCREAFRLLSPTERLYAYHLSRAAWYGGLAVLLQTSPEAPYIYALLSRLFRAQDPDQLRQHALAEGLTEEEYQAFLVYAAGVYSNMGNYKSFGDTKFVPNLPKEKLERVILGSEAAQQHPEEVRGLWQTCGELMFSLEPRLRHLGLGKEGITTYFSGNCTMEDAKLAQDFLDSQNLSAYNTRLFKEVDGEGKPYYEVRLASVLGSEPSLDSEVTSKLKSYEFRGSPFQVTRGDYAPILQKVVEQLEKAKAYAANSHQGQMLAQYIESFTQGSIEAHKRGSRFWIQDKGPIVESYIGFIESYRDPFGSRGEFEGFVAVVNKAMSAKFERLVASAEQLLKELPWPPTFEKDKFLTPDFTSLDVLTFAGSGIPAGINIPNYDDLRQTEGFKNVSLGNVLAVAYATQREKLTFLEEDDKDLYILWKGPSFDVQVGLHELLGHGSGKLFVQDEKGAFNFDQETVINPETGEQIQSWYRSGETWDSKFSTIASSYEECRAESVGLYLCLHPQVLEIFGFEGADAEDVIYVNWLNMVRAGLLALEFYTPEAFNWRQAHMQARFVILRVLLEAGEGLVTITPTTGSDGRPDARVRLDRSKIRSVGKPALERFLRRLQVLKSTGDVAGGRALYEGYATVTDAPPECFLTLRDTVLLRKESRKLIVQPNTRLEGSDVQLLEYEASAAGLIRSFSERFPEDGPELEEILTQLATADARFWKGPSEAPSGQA

healthy mice = experiment: Effect of native DPP3 injection in healthy mice; type: in vivo, Black 6 mice; settings: 600 μg/kg i.v., versus PBS
Description: Wild type Black 6 mice (8-12 weeks, group size refer to table 3) were acclimated during 2 weeks and a baseline echocardiography was done. The mice were randomly allocated to one of the two groups and, subsequently, native DPP3 protein or PBS were injected intravenously via a retro-orbital injection with a dose of 600 μg/kg for DPP3 protein.
After DPP3 or PBS injection, cardiac function was assessed by echocardiography (Gao et al. 2011) and renal function assessed by renal resistive index (Lubas et al., 2014, Dewitte et al, 2012) at 15, 60 and 120 minutes (FIG. 3).

Molecule: CC1C(=O)c2cc(O)c3c(c2C(O)C1O)C(=O)c1cccc(O)c1-3 (stereo not drawn) [Fluostatin B]
inhibition of DPP3 activity (DPP3): strongly inhibit DPP3 activity

Molecule: Cc1cc(=O)c2c(cc(O)c3c4c(O)cccc4c(=O)c32)c1=O [Fluostatin A]
inhibition of DPP3 activity (DPP3): strongly inhibit DPP3 activity

Molecule: CCCCC(=O)N(Cc1ccc(-c2ccccc2-c2nnn[nH]2)cc1)[C@H](C(=O)O)C(C)C [Valsartan]
shortening fraction after DPP3 injection ([1]; 50 mg/kg Valsartan per day in water for two weeks, then native DPP3 600 μg/kg i.v.): rescued; also recorded: no signs of heart dysfunction

IC50 (read off the curve) [2]: ~10 ng/mL
B1: murine monoclonal anti-DPP3 antibody AK1967 (antibody, V domains shown)
VH: QVTLKESGPGILQPSQTLSLTCSFSGFSLSTSGMSVGWIRQPSGKGLEWLAHIWWNDNKSYNPALKSRLTISRDTSNNQVFLKIASVVTADTGTYFCARNYSYDYWGQGTTLTVSS
VL: DVVVTQTPLSLSVSLGDPASISCRSSRSLVHSIGSTYLHWYLQKPGQSPKLLIYKVSNRFSGVPDRFSGSGSGTDFTLKISRVEAEDLGVYFCSQSTHVPWTFGGGTKLEIK

B2: native DPP3: native human DPP3 purified from human erythrocyte lysate (protein)
chain: ADTQYILPNDIGVSSLDCREAFRLLSPTERLYAYHLSRAAWYGGLAVLLQTSPEAPYIYALLSRLFRAQDPDQLRQHALAEGLTEEEYQAFLVYAAGVYSNMGNYKSFGDTKFVPNLPKEKLERVILGSEAAQQHPEEVRGLWQTCGELMFSLEPRLRHLGLGKEGITTYFSGNCTMEDAKLAQDFLDSQNLSAYNTRLFKEVDGEGKPYYEVRLASVLGSEPSLDSEVTSKLKSYEFRGSPFQVTRGDYAPILQKVVEQLEKAKAYAANSHQGQMLAQYIESFTQGSIEAHKRGSRFWIQDKGPIVESYIGFIESYRDPFGSRGEFEGFVAVVNKAMSAKFERLVASAEQLLKELPWPPTFEKDKFLTPDFTSLDVLTFAGSGIPAGINIPNYDDLRQTEGFKNVSLGNVLAVAYATQREKLTFLEEDDKDLYILWKGPSFDVQVGLHELLGHGSGKLFVQDEKGAFNFDQETVINPETGEQIQSWYRSGETWDSKFSTIASSYEECRAESVGLYLCLHPQVLEIFGFEGADAEDVIYVNWLNMVRAGLLALEFYTPEAFNWRQAHMQARFVILRVLLEAGEGLVTITPTTGSDGRPDARVRLDRSKIRSVGKPALERFLRRLQVLKSTGDVAGGRALYEGYATVTDAPPECFLTLRDTVLLRKESRKLIVQPNTRLEGSDVQLLEYEASAAGLIRSFSERFPEDGPELEEILTQLATADARFWKGPSEAPSGQA
shortening fraction after DPP3 injection ([1]; native DPP3 600 μg/kg i.v., no Valsartan): significant decrease in the shortening fraction
renal resistive index (healthy mice): renal resistive index increase
shortening fraction (healthy mice): significantly reduced shortening fraction
renal resistive index (healthy mice; listed as DPP3): increased renal resistive index
shortening fraction (healthy mice; listed as DPP3): shortening fraction reduction
